Consider two molecules from paper PMC10397247.

The target of test [1] is T1, 4H3961-bH.
T1 chain: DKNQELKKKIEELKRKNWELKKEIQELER
Nature of the test: two-hybrid library CCNG1.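 Also: natural log of median RNA to DNA barcode read ratio; higher means stronger binding.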

Test [2] deals with T2, 4H470-bH.
T2 chain: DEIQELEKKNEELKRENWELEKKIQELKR
Put plainly: two-hybrid library CCNG1.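 Also: natural log of median RNA to DNA barcode read ratio; higher means stronger binding.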

The target of test [3] is T3, 4H363-bH.
T3 chain: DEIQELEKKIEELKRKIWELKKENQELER
Nature of the test: two-hybrid library CCNG1.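 Also: natural log of median RNA to DNA barcode read ratio; higher means stronger binding.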

For test [4], the target named is T4, 4H344-bH.
T4 chain: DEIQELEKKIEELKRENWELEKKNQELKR
Put plainly: two-hybrid library CCNG1.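 Also: natural log of median RNA to DNA barcode read ratio; higher means stronger binding.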

Test [5] has as its target T5, 4H3907-bH.
T5 chain: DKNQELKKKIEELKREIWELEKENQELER
Put plainly: two-hybrid library CCNG1.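 Also: natural log of median RNA to DNA barcode read ratio; higher means stronger binding.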

For test [6], the target named is T6, APC3881-AA.
T6 chain: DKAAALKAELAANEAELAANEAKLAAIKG
Put plainly: two-hybrid library CCmax.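 Also: natural log of median RNA to DNA barcode read ratio; higher means stronger binding.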 The note with it: mean of both orientations.

For test [7], the target named is T7, APC2981-AA.
T7 chain: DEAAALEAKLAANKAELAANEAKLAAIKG
Nature of the test: two-hybrid library CCmax. To be noted: mean of both orientations.

Test [8] concerns the target T8, APC3354-AA.
T8 chain: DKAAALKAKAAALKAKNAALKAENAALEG
Nature of the test: two-hybrid library CCmax. To be noted: mean of both orientations.

The target in test [9] is T9, APC4100-AA.
T9 chain: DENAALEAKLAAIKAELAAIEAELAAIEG
Put plainly: two-hybrid library CCmax. To be noted: mean of both orientations.

For test [10], the target named is T10, APC5009-AA.
T10 chain: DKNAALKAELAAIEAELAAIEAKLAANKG
Nature of the test: two-hybrid library CCmax. The note with it: mean of both orientations.

Test [11] addresses T11, APC2543-AA.
T11 chain: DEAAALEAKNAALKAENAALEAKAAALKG
Put plainly: two-hybrid library CCmax. To be noted: mean of both orientations.

Test [12] has as its target T12, APC2724-AA.
T12 chain: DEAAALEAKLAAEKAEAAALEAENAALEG
Put plainly: two-hybrid library CCmax. To be noted: mean of both orientations.

For test [13], the target named is T13, APC8401-AA.
T13 chain: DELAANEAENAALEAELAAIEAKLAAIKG
Nature of the test: two-hybrid library CCmax. The note with it: mean of both orientations.

The target of test [14] is T14, APC2811-AA.
T14 chain: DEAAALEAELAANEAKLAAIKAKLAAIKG
Put plainly: two-hybrid library CCmax. The note with it: mean of both orientations.

Test [15] addresses T15, APC2375-AA.
T15 chain: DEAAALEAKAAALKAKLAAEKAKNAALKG
Put plainly: two-hybrid library CCmax. The note with it: mean of both orientations.

Test [16] deals with T16, APC3323-AA.
T16 chain: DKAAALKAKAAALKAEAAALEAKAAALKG
Nature of the test: two-hybrid library CCmax. To be noted: mean of both orientations.

The target of test [17] is T17, APC6088-AA.
T17 chain: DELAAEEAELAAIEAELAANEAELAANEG
Nature of the test: two-hybrid library CCmax. The note with it: mean of both orientations.

For test [18], the target named is T18, APC7524-AA.
T18 chain: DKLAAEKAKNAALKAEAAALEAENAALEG
Put plainly: two-hybrid library CCmax. To be noted: mean of both orientations.

In test [19] the target is T19, APC8516-AA.
T19 chain: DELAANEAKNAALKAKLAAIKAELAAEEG
Nature of the test: two-hybrid library CCmax. To be noted: mean of both orientations.

In test [20] the target is T20, APC9182-AA.
T20 chain: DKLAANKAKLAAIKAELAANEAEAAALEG
Put plainly: two-hybrid library CCmax. To be noted: mean of both orientations.

Test [21] deals with T21, APC9806-AA.
T21 chain: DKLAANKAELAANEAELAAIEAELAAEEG
Put plainly: two-hybrid library CCmax. To be noted: mean of both orientations.

The target in test [22] is T22, APC3265-AA.
T22 chain: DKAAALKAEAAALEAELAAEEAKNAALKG
Nature of the test: two-hybrid library CCmax.

Test [23] has as its target T23, APC9141-AA.
T23 chain: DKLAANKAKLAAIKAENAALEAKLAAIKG
Put plainly: two-hybrid library CCmax. To be noted: mean of both orientations.

Test [24] deals with T24, APC9291-AA.
T24 chain: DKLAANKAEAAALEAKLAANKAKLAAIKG
Put plainly: two-hybrid library CCmax. To be noted: mean of both orientations.

The target of test [25] is T25, APC2556-AA.
T25 chain: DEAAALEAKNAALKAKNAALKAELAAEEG
Put plainly: two-hybrid library CCmax. The note with it: mean of both orientations.

For test [26], the target named is T26, APC2474-AA.
T26 chain: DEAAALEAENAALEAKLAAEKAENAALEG
Put plainly: two-hybrid library CCmax. The note with it: mean of both orientations.

Test [27] has as its target T27, APC4336-AA.
T27 chain: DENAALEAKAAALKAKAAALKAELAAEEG
Put plainly: two-hybrid library CCmax. The note with it: mean of both orientations.

The target of test [28] is T28, APC5531-AA.
T28 chain: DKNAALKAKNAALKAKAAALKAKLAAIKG
Nature of the test: two-hybrid library CCmax. To be noted: mean of both orientations.

The target in test [29] is T29, APC542-AA.
T29 chain: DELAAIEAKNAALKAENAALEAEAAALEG
Nature of the test: two-hybrid library CCmax. To be noted: mean of both orientations.

Test [30] addresses T30, APC2257-AA.
T30 chain: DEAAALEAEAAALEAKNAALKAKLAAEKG
Nature of the test: two-hybrid library CCmax.

Turning to DEIQELEKKIEELKRENWELEKKNQELKR [4H344-bH], the interaction score in test [1] came out at 0.837; in [2] it was 0.944; in test [3], 0.49; in test [4], 0.843; in test [5], 0.791.
Turning to DEAAALEAEAAALEAKNAALKAKLAAEKG [APC2257-AA], the interaction score is -1.31 in test [6]; -1.18 in [7]; -1.45 in test [8]; -1.56 in test [9]; -1.07 in [10]; -1.02 in [11]. The interaction score is -1.47 in [12]; -1.32 in test [13]; 1.49 in test [14]; -1.42 in test [15]; -1.58 in [16]; -1.24 in test [17]. Further, the interaction score in test [18] was -1.59; in test [19], -1.64; in [20] it was -1.86; in test [21], -1.79; in test [22] it was -1.43; in test [23], -1.37. Besides, the interaction score was -1.61 in test [24]; -1.99 in test [25]; -1.46 in test [26]; -1.71 in test [27]; -1.97 in test [28]; -1.54 in [29]. The interaction score in test [30] is -1.12.
